Results: patent US12371675B2, “Process and microorganism for synthesis of adipic acid from carboxylic acids” (THE GOVERNING COUNCIL OF THE UNIVERSITY OF TORONTO, priority 2015, dated 2025)

B1: EREDCL: 2-enoate reductase (ERED) from Clostridium ljungdahlii DSM 13528 (protein)
chain: MKNKSLFQPIKIGKMEVKNKISMAPMGAFGLVDNEGCYNQRAIDYYVERAKGGTGLIITSITKVENELDKVVPGIIPVISTNPGRFLMTSSEMTERVHAYGAKIFLQLTMGFGRSGAPGTLLTSQPVSASDIPNYWDPTVTCRALTTSEVEWIVSKFIEGADIAQKADFDGVEIHAVHEGYLLDQFTLSIFNRRTDKYGGDLRGRLQLPIEIVQGIKARLGDDFPVGLRYSVKSCIKDWRQGGLPDEDYLEKGRDLKEGLDAAKILEAAGYDELNTDLGTYDAWYWSHPPIYQKNGLYLPYTKELKKVVKIPVIVAGKLGIPEDAEKALDDKAADMIGLGRPLLADPYWPKKVLSDNSERIRPCIGCHTGCLGRGFEGKPLSCTVNPAVGRERYYEIKPTLTPKKVMVVGGGVAGMEAARIIKMRGHDVTIYEGTDKLGGVIIPGSVPDFKVDDRRLIDWYKSEIKELEVKVNFNTKVTEELVEEEKPDVVIIATGAKEIKINVPGIEKDKVITALELLNDNKKVGNDVLMVGGGLVGCEAALYLAKQGKNVTIVEAKDTLLNSSKPIPHMNKIMLIDLLNMYNVKAITNNSLLEVTDKGAVLINNKFKKQEVSADTVTIAVGFKSDRELYNKLNGNIADLYLIGDAYQSANIMNAIWSANEIGLNC
B2: EREDCT: 2-enoate reductase (ERED) from Clostridium tyrobutyricum (protein)
chain: MKNKSLFEPIKIGKVEVKNKISMAPMGAFGLVDNEGCYNQRAVDYYVERAKGGTGLIITSITKVENEIDKVVPGVIPIISINPGRFIMTSSEMTERVHSYGSKIFLQLTMGFGRSGAPGTLLTSQPVSASSVPNYWDPTVTCRELTTSEVEWIVAKFIQGAAIAQKAGFDGVEIHAVHEGYLLDQFTLSIFNRRTDKYGGDLRGRLQLPIEIVQGIKAQVGSDFPVGLRYSVKSCIKDWRQGGLPDEDYVEKGRDLKEGLESAKILEAAGYDELNTDVGTYDAWYWSHPPLYQKDGLYLPYTKELKKVVKIPVIVAGKLGVPQEAEKALDEGGADMIGLARPLLSDAYWPKKVLSGHPERIRPCIGCHVGCLGRGFEGKPLSCAVNPAAGRERYYEIRPAAIPKKVLIAGGGVAGMEAARMAVLRGHKVTLYESTDQLGGEIVPGSVPDFKIDDRRLLDWYRNEMKELKINVIFNTEVTDKLVGKEQPDVVIVATGANDVKIKLPGIEKDKVSTAVDILNGAKKSGKNVLIVGGGLVGCETALYLAKAGKKVAIVEAKDKILDAGKPIPHMNKIMLEDLIKKYNIKVITGNSLLEVTGDGAVLIDNKFKQQEVYADTIVISIGFKSNRKLYNKLHGKVTDLYLIGDAYQTANIMDAIWSGNEIGLNC
B3: BSU2381: OYE protein from Bacillus subtilis subsp. subtilis str. 168 (protein)
chain: MARKLFTPITIKDMTLKNRIVMSPMCMYSSHEKDGKLTPFHMAHYISRAIGQVGLIIVEASAVNPQGRITDQDLGIWSDEHIEGFAKLTEQVKEQGSKIGIQLAHAGRKAELEGDIFAPSAIAFDEQSATPVEMSAEKVKETVQEFKQAAARAKEAGFDVIEIHAAHGYLIHEFLSPLSNHRTDEYGGSPENRYRFLREIIDEVKQVWDGPLFVRVSASDYTDKGLDIADHIGFAKWMKEQGVDLIDCSSGALVHADINVFPGYQVSFAEKIREQADMATGAVGMITDGSMAEEILQNGRADLIFIGRELLRDPFFARTAAKQLNTEIPAPVQYERGW
B4: YST4373: OYE protein from Saccharomyces cerevisiae (protein)
chain: MPFVKDFKPQALGDTNLFKPIKIGNNELLHRAVIPPLTRMRAQHPGNIPNRDWAVEYYAQRAQRPGTLIITEGTFPSPQSGGYDNAPGIWSEEQIKEWTKIFKAIHENKSFAWVQLWVLGWAAFPDTLARDGLRYDSASDNVYMNAEQEEKAKKANNPQHSITKDEIKQYVKEYVQAAKNSIAAGADGVEIHSANGYLLNQFLDPHSNNRTDEYGGSIENRARFTLEVVDAVVDAIGPEKVGLRLSPYGVFNSMSGGAETGIVAQYAYVLGELERRAKAGKRLAFVHLVEPRVTNPFLTEGEGEYNGGSNKFAYSIWKGPIIRAGNFALHPEVVREEVKDPRTLIGYGRFFISNPDLVDRLEKGLPLNKYDRDTFYKMSAEGYIDYPTYEEALKLGWDKN
B5: EREDMT: 2-enoate reductase (ERED) from Moorella thermoacetica ATCC 39073 (protein)
chain: MVVAYTRLFEPIKIGKVEIKNKIAMAPMGVLGLATQDGCFSKRVVDYYVERAKGGTGLIITSVTKVDNEIERFKAGAVPVATANPLHFIATAGELTERVHAYGTKIFLQLGMGFGRVAAPILLESHPVAPSALPNFWDPSITCRELTTAEVETLVQRASEAAEIAVEAGFDGVEIHAMHEGYLLDQFTIALFNRRGDKYGGALEDRLTFPIEIVRAIKDRVGKDFPVVLRFSIKNYIKDWRQGGLPGENFQEKGRDVEEALAAAKILEGAGYDGFDADAGSYDAWYWAHPPVYQKHGCYLPLTQRLKEVVKVPVIVAGRLEIPELAEEALVKGQADMIAIGRGLLTDPYWVNKVMTGRSKNIRPCIGCHDGCLGRGFLGRPLSCTVNPACGREEEYAIDRAPEAKQVMVIGGGVAGMEAARVAALRGHRVSLYEKSDRLGGHVVEAAVPDFKADDGRLLEWYKTELGELQVEIHLNQEVTPEFVEEKNPDVVVVATGSTPAIPDIPGVNKDKVTTVSDLLLGKKQAGDRVVIIGGGLAGCETALWLAQQGKDVTIIEILDDLMRAGIPVPYMNRMMLLDLLKMNGVKWLTETSVLEVTDDGVTLIGKTYQRSPLPADTVILAVGFAADQRLYNALRDKIPNLYLIGDSREPRNILAAIWEGYEVGRGI

How the values were obtained:
[1] = Whole-cell anaerobic biotransformation by E. coli expressing EREDs; type: cell-based; settings: 20 mM 2-hexenedioic acid
[2] = Whole-cell biotransformation of muconic acid by E. coli expressing EREDs; type: cell-based; settings: 0.7 mM, 24-hr incubation
Experimental: After a 24-hr incubation, no muconic acid or 2-hexenedioic acid were detected in the culture, and a 99% yield of adipic acid was obtained (FIGS. 8a, 8b, and 8c). […] The 3-hexenedioic acid-like compound appears to be an inefficient substrate for these EREDS. This is similar to the mutated 2,4-dienoyl-CoA reductases from E. coli, which catalyze hydrogenation of 2,4-dienoyl CoA into 3-enoyl CoA (Tu, X., Hubbard, P. A., Kim, J. J. P. & Schulz, H. Two distinct proton donors at the active site of Escherichia coli 2,4-dienoyl-CoA reductase are responsible for the formation of different products. Biochemistry 47, 1167-1175 (2008).).

[3] = OYE hydrogenation activity screen, NADPH oxidation at 340 nm; type: biochemical; settings: 1 mM substrate, 0.25 mM NADPH, 2.5 μg protein; cut-off 0.05 U/mg protein; ND = not detected
Method in brief: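 Purified OYEs (2.5 μg) were incubated anaerobically for 20 min at room temperature with 1 mM substrate and 0.25 mM NADPH in 50 mM potassium phosphate pH 7.0, 10 mM NaCl. Activity was followed as NADPH oxidation by the absorbance decrease at 340 nm (ε340=6,200/M·cm).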

[4] = Whole-cell biotransformation with E. coli strains over-expressing OYEs; type: cell-based; settings: E. coli over-expressing OYE

| Molecule | time to complete conversion of 2-hexenedioic acid to adipic acid [1] | yield of adipic acid from trans,trans-muconic acid [2] | Activity [U/mg protein] 2-cyclohexen-1-one [3] | hydrogenation of 2-hexenedioic acid into adipic acid [4] | further results |
| --- | --- | --- | --- | --- | --- |
| B1 | 48 h | 99% | – | – | – |
| B2 | – | – | – | – | production of adipic acid [1]: inactivity |
| B3 | – | – | 0.21 U/mg protein | no hydrogenation | – |
| B4 | – | – | 0.23 U/mg protein | no hydrogenation | Activity [U/mg protein] acrolein [3]: 0.17 U/mg protein |
| B5 | 6 h | 99% | – | – | yield of adipic acid from cis,cis-muconic acid [2]: 99% |
